Assays:
Human IR = biological target: T1, Human IR (human, UniProt P06213 28-956, limits assumed); test: SPR, IR immobilised on CM5 chip, IR739 flowed, pH 7.0
T1 construct: the natural receptor is processed into alpha and beta chains; also called human insulin receptor
Method: (§1) Human IR or mouse IR at 1 μg/ml was immobilized with acetate (pH 4.0) on a CM5 sensor chip. […] For measurement conditions, a flow rate was set as 30 μl/min, and an association time and a dissociation time were set as 120 seconds and 600 seconds, respectively. For regeneration, 10 mM glycine-HCl (pH 1.5) was flowed for 30 seconds.

Mouse IR = biological target: T2, Mouse IR (mouse, UniProt P15208 28-946, limits assumed); test: as above
T2 construct: also called mouse insulin receptor
Method: as §1

B1: IR739 (antibody, human IgG1, kappa, V domains shown)
VH: EVQLVESGGGLVQPGGSLRLSCAASGFTFSSYYMSWVRQAPGKGLEWVSAISYGGSSTYYADSVKGRFTISRDNSKNTLYLQMNSLRAEDTAVYYCARHPSYGTVNHAYFDVWGQGTLVTVSS
VL: DIQMTQSPSSLSASVGDRVTITCGASRDVSSYLAWYQQKPGKAPKLLIYDANILQSGVPSRFSGSGSGTDFTLTISSLQPEDFATYYCLEYNNLPLTFGQGTKVEIKR
notes: Conventional IgG from a human synthetic scFv library; also called IR739 antibody; anti-IR antibody
For B1, which Kd (Human IR) is on record?
The Kd was 0.015 µM.

And the koff (Human IR)?
The koff was 0.00144 s⁻¹.

What about the kon (Human IR) of the same binder?
Its kon is 96000 M⁻¹ s⁻¹.

And the Kd (Mouse IR)?
Its Kd is 0.0064 µM.

What about the koff (Mouse IR) of the same binder?
Its koff is 0.00061 s⁻¹.

And the kon (Mouse IR)?
Its kon is 95300 M⁻¹ s⁻¹.

— patent US20210324094A1 (MOGAM INSTITUTE FOR BIOMEDICAL RESEARCH, published 2021)
